Laboratory results published in patent publication US20250277020A1 (Boehringer Ingelheim, published 2025).
Numbering of substitutions follows the chain as printed.

T1: Full-length human CTGF (human, UniProt P29279 27-349)
T1 construct: Corresponds to NCBI NP_001892.1 with the signal peptide omitted; purchased from R&D Systems; also called hCTGF full length; full length CTGF
T1 sequence: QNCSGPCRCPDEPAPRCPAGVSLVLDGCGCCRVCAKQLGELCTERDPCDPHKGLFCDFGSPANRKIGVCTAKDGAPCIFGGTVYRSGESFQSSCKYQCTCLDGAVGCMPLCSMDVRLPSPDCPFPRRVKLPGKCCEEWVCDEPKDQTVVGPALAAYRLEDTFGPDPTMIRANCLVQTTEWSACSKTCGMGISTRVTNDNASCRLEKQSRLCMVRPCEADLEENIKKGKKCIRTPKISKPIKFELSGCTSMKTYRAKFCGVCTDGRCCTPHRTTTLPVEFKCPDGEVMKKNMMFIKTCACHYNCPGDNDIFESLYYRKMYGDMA

B1: A64 (antibody, human IgG1, kappa, L234A L235A)
light: VVMTQTPLSLPVSLGDQASISCRSSQSIVHYNANTYLEWYLQKPGQSPQLLIYKVSNRFSGVPDRFSGSGSGTDFTLKISRVEAEDLGVYYCFQGSHFPLTFGQGTKLEIKRTVAAPSVFIFPPSDEQLKSGTASVVCLLNNFYPREAKVQWKVDNALQSGNSQESVTEQDSKDSTYSLSSTLTLSKADYEKHKVYACEVTHQGLSSPVTKSFNRGEC
heavy: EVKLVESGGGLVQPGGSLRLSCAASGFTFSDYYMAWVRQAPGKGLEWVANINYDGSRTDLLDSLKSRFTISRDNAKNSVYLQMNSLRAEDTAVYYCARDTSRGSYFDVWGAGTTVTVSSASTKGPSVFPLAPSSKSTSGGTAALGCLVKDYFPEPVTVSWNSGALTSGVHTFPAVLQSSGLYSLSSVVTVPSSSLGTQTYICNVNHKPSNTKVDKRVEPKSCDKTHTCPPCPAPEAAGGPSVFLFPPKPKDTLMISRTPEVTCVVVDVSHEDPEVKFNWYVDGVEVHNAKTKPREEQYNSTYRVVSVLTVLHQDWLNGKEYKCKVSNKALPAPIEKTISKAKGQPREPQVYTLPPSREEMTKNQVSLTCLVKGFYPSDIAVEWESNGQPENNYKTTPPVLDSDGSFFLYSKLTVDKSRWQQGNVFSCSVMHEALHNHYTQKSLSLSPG
B2: A66 (antibody, human IgG1, kappa, L234A L235A, V domains shown)
VH: EVQLVESGGGLVQPGGSLRLSCAASGFTFSDYYMAWVRQAPGKGLEWVANINYYGSRTDLLESLKSRFTISRDNAKNSVYLQMNSLRAEDTAVYYCARDTSRGSYFDVWGAGTTVTVSS
VL: VVMTQTPLSLPVSLGDQASISCRSSQSIVHYNTNTYLEWYLQKPGQSPQLLIYKVSNRFSGVPDRFSGSGSGTDFTLKISRVEAEDLGVYYCFQGSHFPLTFGQGTKLEIKR
B3: A70 (antibody, human IgG1, kappa, L234A L235A, V domains shown)
VH: B2 VH with Y54E, E62D
VL: B2 VL
B4: A80 (antibody, human IgG1, kappa, L234A L235A)
light: B1 light with A33G, N34K
heavy: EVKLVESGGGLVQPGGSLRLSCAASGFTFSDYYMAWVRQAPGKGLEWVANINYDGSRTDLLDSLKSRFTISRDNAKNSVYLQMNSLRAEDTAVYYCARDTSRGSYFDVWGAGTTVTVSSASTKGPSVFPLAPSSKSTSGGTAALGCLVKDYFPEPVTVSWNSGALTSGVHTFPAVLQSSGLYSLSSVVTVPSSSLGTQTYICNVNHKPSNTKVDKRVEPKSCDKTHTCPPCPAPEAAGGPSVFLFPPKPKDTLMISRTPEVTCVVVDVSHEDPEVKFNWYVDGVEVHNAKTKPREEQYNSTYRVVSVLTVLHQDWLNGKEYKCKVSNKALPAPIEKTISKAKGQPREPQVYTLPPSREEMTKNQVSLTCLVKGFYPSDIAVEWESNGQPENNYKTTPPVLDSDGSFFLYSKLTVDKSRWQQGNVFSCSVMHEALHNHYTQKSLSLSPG
B5: A65 (antibody, human IgG1, kappa, L234A L235A, V domains shown)
VH: B2 VH with Y54E
VL: B2 VL
B6: A76 (antibody, human IgG1, kappa, L234A L235A, V domains shown)
VH: B2 VH with E62A
VL: B2 VL with T33G, N34K
B7: A89 (antibody, human IgG1, kappa, L234A L235A, V domains shown)
VH: B2 VH with Y54E
VL: B2 VL with P11S, R23K, T33G, N57S
B8: A77 (antibody, human IgG1, kappa, L234A L235A)
light: B1 light with A33G, N34K
heavy: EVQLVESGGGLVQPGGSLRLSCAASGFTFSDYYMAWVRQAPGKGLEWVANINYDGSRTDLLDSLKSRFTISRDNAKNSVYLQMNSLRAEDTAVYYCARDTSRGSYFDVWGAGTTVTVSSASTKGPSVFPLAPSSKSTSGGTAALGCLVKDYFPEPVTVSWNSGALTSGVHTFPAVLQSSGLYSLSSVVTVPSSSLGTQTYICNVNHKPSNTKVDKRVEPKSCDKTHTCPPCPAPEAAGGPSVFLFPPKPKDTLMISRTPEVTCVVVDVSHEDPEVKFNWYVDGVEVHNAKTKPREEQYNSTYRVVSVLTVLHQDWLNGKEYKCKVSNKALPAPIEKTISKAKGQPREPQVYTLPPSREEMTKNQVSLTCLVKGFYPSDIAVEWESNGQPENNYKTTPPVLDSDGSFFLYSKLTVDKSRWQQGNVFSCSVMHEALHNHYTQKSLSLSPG
B9: A83 (antibody, human IgG1, kappa, L234A L235A, V domains shown)
VH: B2 VH with Y54E, E62A
VL: B2 VL with T33E, N34K
B10: A93 (antibody, human IgG1, kappa, L234A L235A)
light: B1 light with P11S, R23K, A33G, N57S
heavy: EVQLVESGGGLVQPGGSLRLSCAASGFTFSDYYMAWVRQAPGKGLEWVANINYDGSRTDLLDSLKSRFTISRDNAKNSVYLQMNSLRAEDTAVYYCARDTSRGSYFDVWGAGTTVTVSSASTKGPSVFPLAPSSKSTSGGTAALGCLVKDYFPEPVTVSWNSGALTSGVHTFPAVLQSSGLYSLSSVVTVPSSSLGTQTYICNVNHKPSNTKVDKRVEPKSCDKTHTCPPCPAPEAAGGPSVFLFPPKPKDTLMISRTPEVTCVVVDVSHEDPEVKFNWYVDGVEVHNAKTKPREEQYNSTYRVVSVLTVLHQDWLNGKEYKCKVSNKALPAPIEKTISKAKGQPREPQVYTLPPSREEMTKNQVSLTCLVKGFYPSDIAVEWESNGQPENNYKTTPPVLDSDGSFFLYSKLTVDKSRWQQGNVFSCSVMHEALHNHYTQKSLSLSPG
B11: A87 (antibody, human IgG1, kappa, L234A L235A, V domains shown)
VH: B2 VH with Y54D
VL: B2 VL with T33E, N34K
B12: A69 (antibody, human IgG1, kappa, L234A L235A)
light: B1 light with A33T
heavy: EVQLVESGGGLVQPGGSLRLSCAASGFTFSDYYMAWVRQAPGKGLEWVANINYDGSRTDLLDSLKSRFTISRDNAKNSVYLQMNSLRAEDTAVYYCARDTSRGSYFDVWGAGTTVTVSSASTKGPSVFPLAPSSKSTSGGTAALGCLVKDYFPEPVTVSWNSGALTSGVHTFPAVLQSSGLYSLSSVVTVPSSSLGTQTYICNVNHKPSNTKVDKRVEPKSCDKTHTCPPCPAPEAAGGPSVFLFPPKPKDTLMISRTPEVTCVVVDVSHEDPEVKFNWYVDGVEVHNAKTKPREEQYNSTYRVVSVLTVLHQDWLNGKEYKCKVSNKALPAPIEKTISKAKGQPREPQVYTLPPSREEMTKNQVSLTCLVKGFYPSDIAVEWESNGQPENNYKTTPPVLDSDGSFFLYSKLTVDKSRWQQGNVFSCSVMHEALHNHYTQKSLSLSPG
B13: A68 (antibody, human IgG1, kappa, L234A L235A, V domains shown)
VH: B2 VH with E62A
VL: B2 VL
B14: A91 (antibody, human IgG1, kappa, L234A L235A, V domains shown)
VH: B2 VH with Y54E, E62A
VL: B2 VL with P11S, R23K, T33G, N57S
B15: A81 (antibody, human IgG1, kappa, L234A L235A, V domains shown)
VH: B2 VH with Y54E
VL: B2 VL with T33E, N34K
B16: A88 (antibody, human IgG1, kappa, L234A L235A)
light: B1 light with A33E, N34K
heavy: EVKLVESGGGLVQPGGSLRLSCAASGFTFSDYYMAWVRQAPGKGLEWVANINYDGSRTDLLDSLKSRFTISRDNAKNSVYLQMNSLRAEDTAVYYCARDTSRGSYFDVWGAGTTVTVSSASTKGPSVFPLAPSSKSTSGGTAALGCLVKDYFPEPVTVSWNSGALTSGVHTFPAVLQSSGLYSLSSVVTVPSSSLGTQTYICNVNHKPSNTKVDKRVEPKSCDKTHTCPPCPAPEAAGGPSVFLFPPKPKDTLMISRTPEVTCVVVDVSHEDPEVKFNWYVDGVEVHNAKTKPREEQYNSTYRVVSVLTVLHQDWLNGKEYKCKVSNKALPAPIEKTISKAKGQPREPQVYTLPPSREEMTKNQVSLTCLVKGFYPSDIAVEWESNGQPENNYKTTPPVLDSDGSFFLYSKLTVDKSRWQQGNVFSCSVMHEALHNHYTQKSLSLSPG
B17: A78 (antibody, human IgG1, kappa, L234A L235A, V domains shown)
VH: B2 VH with Y54E, E62D
VL: B2 VL with T33G, N34K
B18: A72 (antibody, human IgG1, kappa, L234A L235A)
light: B1 light with A33T
heavy: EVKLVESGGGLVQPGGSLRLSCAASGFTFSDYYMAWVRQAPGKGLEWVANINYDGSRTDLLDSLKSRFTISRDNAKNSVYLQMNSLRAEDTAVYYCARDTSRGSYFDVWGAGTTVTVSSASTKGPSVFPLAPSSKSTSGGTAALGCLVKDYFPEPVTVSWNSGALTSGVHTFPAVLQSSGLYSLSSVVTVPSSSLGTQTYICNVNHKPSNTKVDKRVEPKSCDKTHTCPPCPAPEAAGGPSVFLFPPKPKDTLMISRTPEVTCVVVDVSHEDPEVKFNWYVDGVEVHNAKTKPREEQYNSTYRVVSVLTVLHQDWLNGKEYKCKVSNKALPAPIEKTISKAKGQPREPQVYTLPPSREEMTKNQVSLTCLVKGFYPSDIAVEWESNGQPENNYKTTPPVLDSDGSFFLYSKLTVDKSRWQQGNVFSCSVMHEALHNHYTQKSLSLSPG
B19: A67 (antibody, human IgG1, kappa, L234A L235A, V domains shown)
VH: B2 VH with Y54E, E62A
VL: B2 VL
B20: A82 (antibody, human IgG1, kappa, L234A L235A, V domains shown)
VH: B2 VH
VL: B2 VL with T33E, N34K
B21: A71 (antibody, human IgG1, kappa, L234A L235A, V domains shown)
VH: B2 VH with Y54D
VL: B2 VL
B22: A85 (antibody, human IgG1, kappa, L234A L235A)
light: B1 light with A33E, N34K
heavy: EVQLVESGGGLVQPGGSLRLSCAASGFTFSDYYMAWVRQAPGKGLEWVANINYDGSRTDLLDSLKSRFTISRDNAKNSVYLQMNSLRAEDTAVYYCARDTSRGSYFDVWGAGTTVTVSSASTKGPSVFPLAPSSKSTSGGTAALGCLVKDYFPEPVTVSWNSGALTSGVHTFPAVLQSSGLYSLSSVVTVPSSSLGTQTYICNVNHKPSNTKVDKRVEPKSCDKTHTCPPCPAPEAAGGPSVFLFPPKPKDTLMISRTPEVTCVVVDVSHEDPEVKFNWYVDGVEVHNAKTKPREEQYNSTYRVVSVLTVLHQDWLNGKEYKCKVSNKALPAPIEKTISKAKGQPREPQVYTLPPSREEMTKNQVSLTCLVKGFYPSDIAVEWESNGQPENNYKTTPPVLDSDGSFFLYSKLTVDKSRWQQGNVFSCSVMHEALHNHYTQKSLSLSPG
B23: A75 (antibody, human IgG1, kappa, L234A L235A, V domains shown)
VH: B2 VH with Y54E, E62A
VL: B2 VL with T33G, N34K
B24: A90 (antibody, human IgG1, kappa, L234A L235A, V domains shown)
VH: B2 VH
VL: B2 VL with P11S, R23K, T33G, N57S
B25: A84 (antibody, human IgG1, kappa, L234A L235A, V domains shown)
VH: B2 VH with E62A
VL: B2 VL with T33E, N34K
B26: A79 (antibody, human IgG1, kappa, L234A L235A, V domains shown)
VH: B2 VH with Y54D
VL: B2 VL with T33G, N34K
B27: A73 (antibody, human IgG1, kappa, L234A L235A, V domains shown)
VH: B2 VH with Y54E
VL: B2 VL with T33G, N34K
B28: A92 (antibody, human IgG1, kappa, L234A L235A, V domains shown)
VH: B2 VH with E62A
VL: B2 VL with P11S, R23K, T33G, N57S
B29: A74 (antibody, human IgG1, kappa, L234A L235A, V domains shown)
VH: B2 VH
VL: B2 VL with T33G, N34K

The binders below were run against T1, Full-length human CTGF (assay: SPR, full length CTGF).

| Binder | Kd [nM] |
| --- | --- |
| B1 | 0.32 |
| B2 | 0.25 |
| B3 | 0.27 |
| B4 | 0.25 |
| B5 | 0.27 |
| B6 | 0.18 |
| B7 | 0.16 |
| B8 | 0.23 |
| B9 | 0.26 |
| B10 | 0.18 |
| B11 | 0.34 |
| B12 | 0.28 |
| B13 | 0.15 |
| B14 | 0.13 |
| B15 | 0.29 |
| B16 | 0.32 |
| B17 | 0.23 |
| B18 | 0.27 |
| B19 | 0.24 |
| B20 | 0.36 |
| B21 | 0.28 |
| B22 | 0.28 |
| B23 | 0.17 |
| B24 | 0.17 |
| B25 | 0.29 |
| B26 | 0.16 |
| B27 | 0.58 |
| B28 | 0.16 |
| B29 | 0.2 |
